Among the data in paper PMC10672034, “Characterization of a Type II L-Asparaginase from the Halotolerant Bacillus subtilis CH11” (Life, 2023) are stoichiometry N and Km values, retold here.

Data set [1] concerns the target L-ASNasaZP21 (N-terminally truncated type II L-asparaginase of Bacillus subtilis CH11) (Bacillus subtilis CH11) (UniProt O34482). Nature of the data set: SEC; HiPrep 16/60 Sephacryl S-200 HR, 50 mM Tris-HCl, 100 mM NaCl, pH 8.5, 0.5 mL/min; molecular weight from a standard curve (Protein Standard Mix 15-600 kDa), semi-log graph.
Substrate in data set [2]: NC(=O)C[C@H](N)C(=O)O
Nature of the data set: Nessler ammonia assay, Lineweaver-Burk plot. In kind it is biochemical, Bacillus subtilis. As to conditions: pH 9, 60 °C, 10 min, 2-14 mM substrate.

Usually stoichiometry N stands for the number of molecules, sites or subunits per partner or assembly. The term Km denotes the substrate concentration at which the rate is half of its maximum.

On to “L-ASNasaZP21 (N-terminally truncated type II L-asparaginase of Bacillus subtilis CH11) (from UniProt O34482 21-375) (enzyme)”, for which, in data set [1], the stoichiometry N came out at 4.

B1: L-ASNasaZP21 (type II L-asparaginase, ansZP21) (Bacillus subtilis subsp. subtilis str. 168; S21P) (protein)
chain: PHSPETKESPKEKAQTQKVSSASASEKKDLPNIRILATGGTIAGADQSKTSTTEYKAGVVGVESLIEAVPEMKDIANVSGEQIVNVGSTNIDNKILLKLAKRINHLLASDDVDGIVVTHGTDTLEETAYFLNLTVKSDKPVVIVGSMRPSTAISADGPSNLYNAVKVAGAPEAKGKGTLVVLNDRIASARYVTKTNTTTTDTFKSEEMGFVGTIADDIYFNNEITRKHTKDTDFSVSNLDELPQVDIIYGYQNDGSYLFDAAVKAGAKGIVFAGSGNGSLSDAAEKGADSAVKKGVTVVRSTRTGNGVVTPNQDYAEKDLLASNSLNPQKARMLLMLALTKTNDPQKIQAYFNEY
notes: signal peptide and Cys20 (first 60 bp) removed; E. coli BL21(DE3)pLysS; homotetramer 155 kDa; forward primer encodes …
Regarding B1, the Michaelis constant (Km) in data set [2] amounted to 4.75 mM.
